According to IntAct's records for PubMed 17292842:

B1: Rab guanine nucleotide exchange factor SEC2 (Saccharomyces cerevisiae), P17065 (parent)
chain: MDASEEAKRVSIQVTSLSTQLIESVDKQSHLEEQLNKSLKTIASQKAAIENYNQLKEDYNTLKRELSDRDDEVKRLREDIAKENELRTKAEEEADKLNKEVEDLTASLFDEANNMVADARKEKYAIEILNKRLTEQLREKDTLLDTLTLQLKNLKKVMHSLDNESTVTNNSNRYSTILSDSATSSSTSLNKVPTSYSLASQDIYSGIVYSPSISSIRYDISLYNEFLKFVAALPRCENIKATSTESKLIRRLVNDEIQPILKIDNASGIGWLVKKTLLSLIIDGLVVVEPLSGVNATYQIGYNSSSPAKQATSNMPKMFKFPLDSPPVAVHAACSFCGESRDDIIEHARMYILKTLHKTDDGKEQVTNTYPLCHWCLLKLRQTCEIFAFLRSLKVGAWHLEKLTTQNITKEDLEKFSEVTKHTKRDGRVSSQDKKTKRLSFMAGLGINSSTKNKPKMEIFSSETNAKPGQPTTNIQRAWLQLCKLRCILHWTHIGIWAVDDSISSKIGPLVEDDSDEDQNDAISVRLQDKALWKQDAKRPFSSSSAEESQKSDAFDFESGDMENEITGESSSDESSSDGSSTDNSTADSSSEDESSLADSTTSSADSSSPESIDNGEGDDTVTKDDKSSIKSANNNEENSDCGDKKGRSIIKKKAPQRKIQKKKLLQDLDDLEEQFREESAIDQTEFENAESNVKQNISSKRASSGDENSKKDNNEKTLKTNLTIGDKTQEQIGENSPSSGLHASSSNDDNFDDAQEQQ
partner: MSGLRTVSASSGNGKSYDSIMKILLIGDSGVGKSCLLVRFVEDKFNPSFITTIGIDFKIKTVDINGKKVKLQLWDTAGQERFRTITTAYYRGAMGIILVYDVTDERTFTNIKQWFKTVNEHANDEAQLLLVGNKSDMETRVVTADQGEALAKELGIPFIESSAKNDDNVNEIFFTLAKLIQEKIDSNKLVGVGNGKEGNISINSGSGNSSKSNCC

Variants of: B1
Conditions: with sec4_yeast SEC4, P07560

| Variant | effect of a mutation on the interaction |
| --- | --- |
| L104A | disrupting interaction |
| E100A | disrupting interaction |
| F109A | disrupting interaction |
